Biological target: the molecule itself
Experiment: dynamic light scattering + fluorescence microscopy

B1: Dhh1^48-425 (domain or fragment, yeast, UniProt P39517 48-425, looked up)
chain: FEDFYLKRELLMGIFEAGFEKPSPIQEEAIPVAITGRDILARAKNGTGKTAAFVIPTLEKVKPKLNKIQALIMVPTRELALQTSQVVRTLGKHCGISCMVTTGGTNLRDDILRLNETVHILVGTPGRVLDLASRKVADLSDCSLFIMDEADKMLSRDFKTIIEQILSFLPPTHQSLLFSATFPLTVKEFMVKHLHKPYEINLMEELTLKGITQYYAFVEERQKLHCLNTLFSKLQINQAIIFCNSTNRVELLAKKITDLGYSCYYSHARMKQQERNKVFHEFRQGKVRTLVCSDLLTRGIDIQAVNVVINFDFPKTAETYLHRIGRSGRFGHLGLAINLINWNDRFNLYKIEQELGTEIAAIPATIDKSLYVAENDET
binding result: binds

Reference: paper doi:10.1101/2021.02.26.433003 (bioRxiv, 2021)
